Tested on: Escherichia coli TOP10
Assay: shrunken log2 fold change of peptide-encoding DNA abundance (4.5 h post-induction vs induction); higher = less antimicrobial activity (less host growth inhibition)
Conditions: time post-induction: 4.5 h; library: site-saturation at positions 5, 18, 19, 20
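Further: peptides expressed intracellularly from a pBAD plasmid library in pooled LB shake-flask culture, induced with 0.3% L-arabinose, DNA abundance read by NGS, three biological replicates, DESeq2 with apeglm shrinkage.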

Sequence	shrunken log2 fold change
RRIRSRPPRLPRPRPRPHYEPRP	-0.573
RRIRERPPRLPRPRPRPGDEPRP	0.115
RRIRSRPPRLPRPRPRPDPHPRP	-0.151
RRIRDRPPRLPRPRPRPLPCPRP	0.0544
RRIRIRPPRLPRPRPRPFFLPRP	-0.406
RRIRCRPPRLPRPRPRPWWCPRP	-0.248
RRIRLRPPRLPRPRPRPLTDPRP	0.133
RRIRTRPPRLPRPRPRPDSKPRP	0.0427
RRIRSRPPRLPRPRPRPQYWPRP	-0.397
RRIRSRPPRLPRPRPRPTKGPRP	-0.0226
RRIRKRPPRLPRPRPRPNMTPRP	0.0525
RRIRYRPPRLPRPRPRPKSAPRP	0.0745
RRIRYRPPRLPRPRPRPNRHPRP	-0.614
RRIRLRPPRLPRPRPRPDARPRP	0.0258
RRIRYRPPRLPRPRPRPITPPRP	-0.174
RRIRHRPPRLPRPRPRPETVPRP	0.12
RRIRMRPPRLPRPRPRPSEHPRP	0.0665
RRIRERPPRLPRPRPRPEREPRP	0.414
RRIRRRPPRLPRPRPRPGSGPRP	0.407
RRIRARPPRLPRPRPRPEVNPRP	0.291
RRIRKRPPRLPRPRPRPCNGPRP	-0.0184
RRIRLRPPRLPRPRPRPECVPRP	0.148
RRIRSRPPRLPRPRPRPWCNPRP	-0.116

Sequence	shrunken log2 fold change
RRIRQRPPRLPRPRPRPNKEPRP	0.00917
RRIRARPPRLPRPRPRPQEEPRP	0.0293
RRIRGRPPRLPRPRPRPKPMPRP	0.419
RRIRPRPPRLPRPRPRPAVSPRP	0.171
RRIRMRPPRLPRPRPRPSDEPRP	0.958
RRIRWRPPRLPRPRPRPNYPPRP	-0.157
RRIRYRPPRLPRPRPRPPVFPRP	0.0494
RRIRCRPPRLPRPRPRPEFIPRP	-0.551
RRIRWRPPRLPRPRPRPTAGPRP	0.965
RRIRDRPPRLPRPRPRPMDKPRP	-0.0384
RRIRERPPRLPRPRPRPKKLPRP	-0.083
RRIRLRPPRLPRPRPRPDDWPRP	0.044
RRIRMRPPRLPRPRPRPEAMPRP	0.204
RRIRIRPPRLPRPRPRPTYEPRP	-0.458
RRIRQRPPRLPRPRPRPTVEPRP	0.186
RRIRDRPPRLPRPRPRPCIHPRP	-0.233
RRIRFRPPRLPRPRPRPKESPRP	-0.0731
RRIRDRPPRLPRPRPRPEHMPRP	0.05
RRIRIRPPRLPRPRPRPSMIPRP	-0.458
RRIRQRPPRLPRPRPRPSCQPRP	-0.834
RRIRVRPPRLPRPRPRPSRAPRP	0.152
RRIRARPPRLPRPRPRPEECPRP	1.27
RRIRFRPPRLPRPRPRPRFGPRP	-0.0656

Sequence	shrunken log2 fold change
RRIRDRPPRLPRPRPRPAISPRP	-0.0409
RRIRIRPPRLPRPRPRPCCWPRP	0.0865
RRIRCRPPRLPRPRPRPHMAPRP	-0.374
RRIRRRPPRLPRPRPRPALHPRP	0.651
RRIRIRPPRLPRPRPRPVGDPRP	-0.0246
RRIRMRPPRLPRPRPRPMVIPRP	-0.0665
RRIRWRPPRLPRPRPRPTHQPRP	-0.0304
RRIRLRPPRLPRPRPRPFVGPRP	4.94e-06
RRIRHRPPRLPRPRPRPSNMPRP	-1.48
RRIRRRPPRLPRPRPRPFWSPRP	0.18
RRIRYRPPRLPRPRPRPDTVPRP	0.019
RRIRHRPPRLPRPRPRPYGVPRP	-0.256
RRIRRRPPRLPRPRPRPLKVPRP	0.0966
RRIRFRPPRLPRPRPRPWDGPRP	0.00772
RRIRYRPPRLPRPRPRPCSVPRP	-1.08
RRIRYRPPRLPRPRPRPYEVPRP	-0.343
RRIRIRPPRLPRPRPRPPTLPRP	-0.431
RRIRFRPPRLPRPRPRPHLHPRP	-0.511
RRIRPRPPRLPRPRPRPYDWPRP	0.0551
RRIRSRPPRLPRPRPRPMQQPRP	0.178
RRIRVRPPRLPRPRPRPNAMPRP	-0.234
RRIRCRPPRLPRPRPRPSYYPRP	-0.794
RRIRKRPPRLPRPRPRPFNTPRP	-0.0902

Sequence	shrunken log2 fold change
RRIRKRPPRLPRPRPRPPVYPRP	0.387
RRIRLRPPRLPRPRPRPIRSPRP	-0.0199
RRIRERPPRLPRPRPRPQCEPRP	-0.0239
RRIRQRPPRLPRPRPRPEKSPRP	0.287
RRIRDRPPRLPRPRPRPKPHPRP	0.305
RRIRRRPPRLPRPRPRPLIHPRP	0.125
RRIRNRPPRLPRPRPRPKWPPRP	0.208
RRIRVRPPRLPRPRPRPPVMPRP	-0.105
RRIRPRPPRLPRPRPRPYSAPRP	-1.14
RRIRNRPPRLPRPRPRPEIPPRP	-0.113
RRIRPRPPRLPRPRPRPNQCPRP	-0.0767
RRIRYRPPRLPRPRPRPIWMPRP	-0.0399
RRIRIRPPRLPRPRPRPLTGPRP	-0.0674
RRIRQRPPRLPRPRPRPCVRPRP	-0.154
RRIRMRPPRLPRPRPRPKQRPRP	1.1
RRIRHRPPRLPRPRPRPRVPPRP	-0.134
RRIRVRPPRLPRPRPRPVKMPRP	0.0133
RRIRMRPPRLPRPRPRPAQEPRP	0.0616
RRIRRRPPRLPRPRPRPPNWPRP	0.581
RRIRKRPPRLPRPRPRPWDVPRP	0.0155
RRIRDRPPRLPRPRPRPLHNPRP	-0.338
RRIRQRPPRLPRPRPRPLFDPRP	-0.607

— the supplement of paper PMC9112550, “Optimization of the antimicrobial peptide Bac7 by deep mutational scanning” (BMC Biology, 2022)
